Measured values published in patent publication US20220073581A1 (UCB, published 2022).

T1: EPO-R (EPO receptor, R&D Systems) (UniProt P19235 25-250)
T1 sequence (looked up): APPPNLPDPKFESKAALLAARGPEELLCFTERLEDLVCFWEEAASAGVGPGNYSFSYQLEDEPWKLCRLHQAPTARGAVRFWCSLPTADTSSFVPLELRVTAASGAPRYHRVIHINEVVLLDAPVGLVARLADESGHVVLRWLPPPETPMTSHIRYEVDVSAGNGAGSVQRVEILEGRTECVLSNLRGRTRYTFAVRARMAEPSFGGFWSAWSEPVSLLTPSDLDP

T2: GM-CSF receptor, cognate for the murine GM-CSF constructs (UniProt Q00941 30-327)
T2 construct: also called GM-CSF-Ra; cognate GM-CSF receptor
T2 sequence (looked up): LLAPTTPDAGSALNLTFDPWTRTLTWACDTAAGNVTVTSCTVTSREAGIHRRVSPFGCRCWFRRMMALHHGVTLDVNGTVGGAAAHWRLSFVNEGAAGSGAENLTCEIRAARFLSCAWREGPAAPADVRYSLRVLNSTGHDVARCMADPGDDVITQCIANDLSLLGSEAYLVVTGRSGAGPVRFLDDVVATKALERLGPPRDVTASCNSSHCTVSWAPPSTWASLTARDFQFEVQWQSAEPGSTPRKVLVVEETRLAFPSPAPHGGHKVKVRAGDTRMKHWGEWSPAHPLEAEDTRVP

T3: IL-2-Rβ (IL-2 receptor β chain, R&D Systems) (UniProt P14784 27-239)
T3 construct: also called IL-2-sRβ
T3 sequence (looked up): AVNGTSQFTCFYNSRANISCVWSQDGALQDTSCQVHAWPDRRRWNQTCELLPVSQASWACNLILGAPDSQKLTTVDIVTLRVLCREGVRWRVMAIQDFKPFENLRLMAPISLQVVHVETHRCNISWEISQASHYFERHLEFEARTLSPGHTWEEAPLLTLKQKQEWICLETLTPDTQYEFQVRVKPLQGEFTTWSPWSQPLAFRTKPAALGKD

T4: GM-CSF receptor, cognate for the human GM-CSF constructs (GM-CSF-Ra, R&D Systems) (UniProt P15509 23-320)
T4 construct: also called cognate GM-CSF receptor
T4 sequence (looked up): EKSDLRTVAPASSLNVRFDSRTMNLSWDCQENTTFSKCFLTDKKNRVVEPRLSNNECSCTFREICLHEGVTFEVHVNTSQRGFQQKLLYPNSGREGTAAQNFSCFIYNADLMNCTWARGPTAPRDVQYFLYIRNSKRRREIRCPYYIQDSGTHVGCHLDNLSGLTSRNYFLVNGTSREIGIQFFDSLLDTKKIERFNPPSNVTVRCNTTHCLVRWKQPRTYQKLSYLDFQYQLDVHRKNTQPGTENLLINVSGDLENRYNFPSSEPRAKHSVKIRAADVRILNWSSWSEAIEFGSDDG

B1: CA645 Fab (unmodified, wild type, anti-human serum albumin) (Fab, V domains shown)
VH: EVQLLESGGGLVQPGGSLRLSCAVSGIDLSNYAINWVRQAPGKGLEWIGIIWASGTTFYATWAKGRFTISRDNSKNTVYLQMNSLRAEDTAVYYCARTVPGYSTAPYFDLWGQGTLVTVSS
VL: DIQMTQSPSSVSASVGDRVTITCQSSPSVWSNFLSWYQQKPGKAPKLLIYEASKLTSGVPSRFSGSGSGTDFTLTISSLQPEDFATYYCGGGYSSISDTTFGGGTKVEIKR
notes: Control without insert polypeptide; also called unmodified CA645 Fab; wild type CA645 Fab
B2: CA645/VHH6Fwk3 (CA645 Fab with camelid VHH6 inserted into framework 3 of the VH domain) (bispecific antibody)
heavy: EVQLLESGGGLVQPGGSLRLSCAVSGIDLSNYAINWVRQAPGKGLEWIGIIWASGTTFYATWAKGRFTISRDNSGGGGSGGGGSDVQFVESGGGSVHAGGSLRLNCATSGYIYSTYCMGWFRQAPGKEREGVAHIYTNSGRTYYADSVKGRFTISQDNAKNTVYLQMNSLKPEDTAIYYCAARPSIRCASFSATEYKDWGQGTQVTVSSGGGGSGGGGSKNTVYLQMNSLRAEDTAVYYCARTVPGYSTAPYFDLWGQGTLVTVSSASTKGPSVFPLAPSSKSTSGGTAALGCLVKDYFPEPVTVSWNSGALTSGVHTFPAVLQSSGLYSLSSVVTVPSSSLGTQTYICNVNHKPSNTKVDKKVEPKSC
light: DIQMTQSPSSVSASVGDRVTITCQSSPSVWSNFLSWYQQKPGKAPKLLIYEASKLTSGVPSRFSGSGSGTDFTLTISSLQPEDFATYYCGGGYSSISDTTFGGGTKVEIKRTVAAPSVFIFPPSDEQLKSGTASVVCLLNNFYPREAKVQWKVDNALQSGNSQESVTEQDSKDSTYSLSSTLTLSKADYEKHKVYACEVTHQGLSSPVTKSFNRGEC
notes: also called CA645/VHH6 antibody fusion protein

Key:
[1] = target: T1, EPO-R (EPO receptor, R&D Systems); assay: SPR (Biacore), Fab captured on anti-human F(ab)2, EPO-R injected
Experimental: (§1) Briefly, the carboxymethyl dextran surface was activated with a fresh 1:1 (v/v) mixture of 50 mM N-hydroxysuccimide and 200 mM 1-ethyl-3-(3-dimethylaminopropyl)-carbodiimide for 5 minutes at a flow rate of 10 μL/min. The anti-human F(ab)₂ in 10 mM acetate pH 5.0 buffer was covalently coupled to chips at 50 μg/mL in a 10 minute pulse at the same flow rate. Finally the surface was deactivated with a 10 minute pulse of 1 M ethanolamine.HCl pH 8.5. A reference flow cell was prepared on the chip by omitting the protein from the above procedure.
(§2) A typical SPR cycle comprised a flow rate of 10 μL/min with HBS-EP as running buffer and diluted supernatant was injected for 1 min to capture the antibody/Fab fusion protein. This was followed by a 30 μl injection of the diluted cognate ligand or receptor or buffer control. The subsequent dissociation phase was monitored for at least 3 min. […] In some experiments a specificity control cycle was included where the cognate receptor/ligand (the insert portion of the antibody/Fab fusion protein) was pre-mixed with a 2-fold molar excess of its binding partner. Each cycle terminated with a regeneration step comprising two 10 μL injections of 40 mM HCl interspersed with a 5 μL injection of 5 mM NaOH. […]

[2] = target: T2, GM-CSF receptor, cognate for the murine …; assay: SPR (Biacore), Fab captured on anti-human F(ab)2, GM-CSF receptor injected
Experimental: as §1, §2

[3] = target: T3, IL-2-Rβ (IL-2 receptor β chain, R&D …); assay: SPR (Biacore), Fab captured on anti-human F(ab)2, IL-2-Rβ injected
[4] = target: T4, GM-CSF receptor, cognate for the human …; assay: SPR (Biacore), Fab captured on anti-human F(ab)2, GM-CSF receptor injected
Experimental: as §1, §2

IL-6 (R&D Systems) = IL-6 (R&D Systems) (UniProt P05231 30-212, limits assumed); assay: SPR (Biacore), fusion captured on anti-human F(ab)2, IL-6 alone injected
Experimental: as §1
A typical SPR cycle comprised a flow rate of 10 μL/min with HBS-EP as running buffer and diluted supernatant was injected for 1 min to capture the antibody/Fab fusion protein. This was followed by a 30 μl injection of the diluted cognate ligand or receptor or buffer control. The subsequent dissociation phase was monitored for at least 3 min. […] In some experiments a specificity control cycle was included where the cognate receptor/ligand (the insert portion of the antibody/Fab fusion protein) was pre-mixed with a 2-fold molar excess of its binding partner. Each cycle terminated with a regeneration step comprising two 10 μL injections of 40 mM HCl interspersed with a 5 μL injection of 5 mM NaOH.

Binder	binding result [1]	binding result [2]	binding result [3]	binding result [4]	binding result (IL-6 (R&D Systems))
B1	no binding (tested: 50 nM)	no binding (tested: 100 nM)	no binding (tested: 100 nM)	no binding (tested: 100 nM)	–
B2	–	–	–	–	no binding (tested: 100 nM)
